20 sequences from the DeepSol protein solubility set can be followed below.

The series can be described thus: soluble on expression in E. coli; label from the status in PepcDB or PDB records.
In the case of “LDRQTERLQQGEVDVRFNMVSRMLDHPDLAERWPHLQGKLDNLSQEYELIRFWIDSDDPRYHYGRFSEPVQRLIADGAGRYELELPEHRYALTARVGVLPAREGRPRLTYVTAIDSAAFHEARTSTLKW”, the “soluble on expression in E. coli” value was “not soluble”.
Regarding “MSQNHVIELANTLKQRPIVCDYTGGRFRLTNEGLTYIGIDRDGTPLPPRWICAPLHIVAKTRDAQSGEWGRLLEWQDDDGITHQWAMPLALLQGDASDVRRELARLGLSISPHRTARDLLASYLQVFPVDARARCVDKLGWHGDVFVTASQCIGQSTEKIVFQNTNAIEPAMSIKGSVDKWRDSIGRLASGNSRLVFAISVALAPVLAKIVGEDSGGFHFRGASSSGKSTALSLAASVWGNPQSYCRLWRSTTNGLEGLAALHNDGLLILDELSQMDPREAGEAAYLLANGQGKTRASRTGTVRQSSRWSLFFLSAGEESLTALMAKSGQRINAGQEIRLADIEADAGCQMGIFETIHDQLSPASMALSLKKYSSGYHGAIGRAWLNQVVANRQTISRFITDTIQSFVDIVIQPDATGQIIRVARRFALVAAAGELASQFGLTGWKKGESFHAAKTCFIAWQDAFGVDGHREDRAIMAQVRAFFESHGASRFDNVNSPNNDKILNRAGFYHTDGEGFRIYMVLTETYKNELCKGFDQRTVTRVLLQAGWLKPASDGKLEHHHHHH”, the “soluble on expression in E. coli” value is recorded as “not soluble”.
For “MIQITVVQIDNYGPWTVTPNPRRESDLQALQSRLYCDMNLQFGAHKGLAFYTRFDNIIAITNGIDLETHKRIQNSVKNRYPFTVSMAVASAETAYEAQKLATKTIQEYGSAQDDVRKEVLDVANEFVSNGYVQLAHVDINDITGKLTDLETAYDTYLSVQKTKLKLMEELKKYDSLGFFIGGDNFMCPCNGMNEKDFLCMFEDIKDSCGIELKAGIGIGKTAEDASNLADIGLEVIREGKTDSQVYTLKQ” the value was “not soluble”.
For “MVEKPKDIKIAQESFPILVAENIYHCGYHSEKSYGAASYLIQHSQGNILVDSPRFTPPLVKRIEAMGGIKYMYLTHQDDVADHQKFAEHFQCQRILHTDEISAGTRNVEIQLTGLEPFPLQPDVLIIPVPGHTKGHTVLLYKNKFLFTGDHLAWSENRHQLTAFRDVCWYSWAEQIKSMRRLADYSFDWVLPGHGRRFHADVETMRQQMHKCIELMTDERQPLTFNSLEHHHHHH” the value was “soluble”; for “MGSDKIHHHHHHVSKLSKTRIILACLLNDSVMTTTTAALTPNPIPDLGTDLTTEPCPLTAAQLDVLNRQIKLWGKELGFAHIGVADVDLSQHEAALQDWLDKGYHGEMGYMANHGMMRARPAELHPGAIRVICARMDYLPPDAGFASNLTDPNLGYISRYAGGRDYHKLIRQRLKKLGDKINQYCQQLDFDATDFRPFVDSAPILERPLADKAGLGWTGKHSLILHPDAGSWFFLGELLINLPLPLDIPIEEGCNTCVACIKSCPTDAIVEPYVVDARRCISYLTIELQGAIPEEFRPLIENRIYGCDDCQLVCPVNAKAPLTKETDFHTRTTLIQPDLLTLFAWSETYFLNQTEGSAIRRIGHKRWLRNIAIALGNAPANPAIIEALEQRKHSEEVDDMVLEHIEWALVQQIQKAPQSALSRKTQRVIRSIQKGLPRDA”, “not soluble”.
The entry for “KMFFKVIDTLSDNYEKEMLLLEAEAKEQYYQELEKSSREVRKIKHDLKNMLLAICGKAKKQNEISEEIYKIIKELDESDKKIYTSNVVINTIINHKISQAKKLEIKTDVNIKVSKAIHIDYKDAGILLGNILDNAIEACEKIKKKERWIKIDMLHNKNTLFIEVCNSKGKELTNISKSSKSDAHNHGIGISSIKAITKKYDGYVEFVDKGEEFEVVVNLYGMSF” is “not soluble”; for “MGSDKIHHHHHHMLLTTRPPSPDSIPCCAGCSMARVCLAGNCDSDGEGPADGLAQRVIRLRKGEPLYLLGDPLAALFAVRVGTVKTHVATEDGRTQVVGFHFPGEVVGLDSIGRRQYASYATALEDTKVCMIPMDVLRPLAACTPALASRVFRALDGYAQRTRALQTLLALMTAEERLVTFLLWISEGLAARGFSSSEFILRMSREEIGSYIGLTLETVSRQFSRLAECGLIRVKHRSVALVDKAGLRAIADRSAISPIPPGTNRRRGGEQRVPAQALRTSAPAWATRTQPATAAMQADNPKINPFAWEAGNGQQ” it is “not soluble”.
With “MGSDKIHHHHHHMYLALIGDIINSKQILERETFQQSFQQLMTELSDVYGEELISPFTITAGDEFQALLKPSKKVFQIIDHIQLALKPVNVRFGLGTGNIITSINSNESIGADGPAYWHARSAINHIHDKNDYGTVQVAICLDDEDQNLELTLNSLISAGDFIKSKWTTNHFQMLEHLILQDNYQEQFQHQKLAQLENIEPSALTKRLKASGLKIYLRTRTQAADLLVKSCTQTKGGSYDF”, the “soluble on expression in E. coli” value is listed as “not soluble”.
The entry for “MPDRPQHPTASRQSSMVSWNHGAAGWLHCVQCGSATNPTACLDWLPPIHARSGPMYAEHDVVVLTRDVPDKSLIAGDVGAVVGRYAAGGYEVDFTAANGCTVAVVTLAGDDIRPRRRREIPHVREVA” is “not soluble”; for “MGSDKIHHHHHHMRDIHILHDLIKKQCPQIHQKRLNSLMVATESLLDGNQLSLTQLGRNITGSVAAKHNIKRIDRLLGNYHLAQDKITIYQWHARYLCGANPMPIILVDWSDVREQLRIMTLRASISVQGRSVTLYERTFLFEDYNAPRSHNAFLAELANVLPQGCCPLIVTDAGYRNTWFREVERYGWFWLGRVRGDVSFMHHGQTTWHSNKSLYSKANSTAKYIGNVQLARKSPLSCHLHLF” it is “not soluble”; for “SGFNHVKPTEYKPRLLHISGDKNAKVAEVPLATSSLNSGDCFLLDAGLTIYQFNGSKSSPQEKNKAAEVARAIDAERKGLPKVEVFCETDSDIPAEFWKLLGGKGAIAAKHETA” it is “soluble”.
For “MTTDQSKLEAINQALRAQRQLVRQLDDQQASLERQLQGLTGDSAGWAADTDPALGHVLEAFHALLGSLTESLSQGDAAQLLARCAAELLPDTTGAIFVDQAGVEPANRAIAAWRGAELLTDPNALHYECTEDQAAHRLNIEAQGLYLGVVELRPLSPGRALRAREQQTLQMLASAAGLALATHTLRYRLRHRNVRDPLTGLFNRRYAEDTLERELHRAQRHQLPLSVVLIDLDRFEAYNQRHGQNAGDRMLQAMSDLLQHSFRGSDICARAAGQRFLLVLPEAAIRDAIERANDLRRELAKVRVHLRGLHLPAMTVSMGVAGYPEHADSSDDLMAAADAALQLAKHSGGNTCALAEKVPLSPHNE” the value was “soluble”; for “MERSQCGSRDRGVSGRPHLAPGLVVAAPPPPSPALPVPSGMQCARCRNHGVVSALKGHKRFCRWRDCACAKCTLIAERQRVMAAQVALRRQQAQEESEARGLQRLLCSGLSWPPGGRASGGGGRAENPQSTGGPAAGAALGLGALRQASGSATPAFEVFQQDYPEEKQEQKESKCESCQNGQEELISKSHQLYLGSSSRSNGVIGKQSIGSSISEYSNKPDSILSPHPGEQSGGEESPRSLSSSDLESGNESEWVKDLTATKASLPTVSSRPRDPLDILTKIFPNYRRSRLEGILRFCKGDVVQAIEQVLNGKEHKPDNRNLANSEELENTAFQRASSFSLAGIGFGTLGNKSAFSPLQTTSASYGGDSSLYGVNPRVGISPLRLAYSSAGRGLSGFMSPYLTPGLVPTLPFRPALDYAFSGMIRDSSYLSSKDSITCGRLYFRPNQDNP”, “soluble”; for “MSLEGFIEGSSLTVLNRNFYFNRDNRDSTAPTYNSGKGNTNGYSEAWAHAIISKFNSGFTQGTVGFGVDAFAMIGLKLDTGDGRNGGRSSFDVLPVDNKGEARDEYTKVGGAAKVRLFDTIVKVGDVFPSTPVVASGDSRLLPESFRGVTVENTSIQGLTLQGGRLHAMSQPVSSNLNDNFVTFYGGPVNSPWIGYGGGDYSINDNWTVSVYASQLKDVWNQYYAGTSVVYPLSDDLALIGGFNYYKAVDEGKKRLGEFDNNIWSAKVGVRYGAHTLALSHQRNNGDDDFDYLRQSDSIFVDNSIQYSDFNSPKERSWMLRYDLNFTSYGIPGLTFMTRYARGSGADYSNANQFYMRTDDNGNPLDNQKRWERDVEVKYVVQTGPAKDLSFRLRQATTRATAFESDLDETRVIIEYPLSILEGHHHHHH”, “soluble”.
The entry for “MKTKTARLFALTALTAATTMPLAAQVSAQEASPREATISVSGEGQAAIAPDMAILSFSVVKQAETAAAALTENSKALAEVLKALKEAAIEDRDLQTSNFSVQPLYKHYEPKDGVYVAPEITGYQVSNGLTVRVRDLKMLGTILDTSVKLGINQGGDITFTNDKPEATVTEARKQAVADAIAKAKTLTEAAGVKLGRVIQISENSQRPMPVPAGMMRASMMKEADSVPIASGENNYSVVVNVTFALDQ” is “not soluble”; for “MAHHHHHHMFCFSRGLWMRHIGQDVPKRHTHFVLESRLMYEKSFRDCWLHSVCRAISQLDEPLSKTVVGTHQKMLQRKVTCFQYNQYGLFKTPYYRLANVDRYHAVQGVAGTREWVPYVNVSYWTMNKMVRGGNLLVHRVHYTGWGTDSHLKKGGWEHRWNKVLQRNVLQYSRI” it is “not soluble”.
As for “RDISVMVLLDLSESTNNQVNGQEFTVLDLTRQATVLLADAINRIGDPFAIHGFCSDGRHDVEYYRFKDFDQPYNEVPKMRLAGMTGQLSTRMGAAIRHASHFLKLQRAAKKLLLVITDGEPADVDVRDPQYLRFDTKKAVEEAGRSGILTYCMSLDPRADQYVSRIFGMRNYMVVDHVERLPEKLPMLYAGLTR”, the “soluble on expression in E. coli” value is on record as “not soluble”.
The entry for “MDEGVKEKFIGAVLGAAVGDALGKSVEDITEEEVFEFYGDRIRDFVTPHPSSPAYGQLPEETSDETTIFRLLLESLVEKKALDVRDFLNRLMEWYDREEMHRYPDPMLLTAIDLLSRGINPSTHGLTSFSVEGILRSVALGLYHYYNPELAAEGSKVVSLLTHRSDVISDASAILGALIAHLVRGDFYLEDFREKLRLIETLKDYAKEEKHKKILDRVAELLMESADLETAINTLGNGTFAFEAFPLALYIFLSNVENPEEALFQAVNSYGEFGGDTDAIGFLVGAMLGAYYGEEAIPYHLRENVENSQKLRELAERLYEVVEKQVGFSQ” is “not soluble”.
The entry for “MSLKVVSVDTLCCDAGWRNYHFVKLTTDEGIVGWSEFDEGFGSPGVTAVIEQLGKRLVGASVMEHERFFAEAYCLTRPATGGVVSEGIGAIENALLDAKAKTLNVPCYELLGGKLRDRVPVYWSHCPTWRINHPKFFGPPVTDLDGVKRTAEEARERQFRAIKTNIFIHDDGPLHAWRPGFAVPFQPALNVDRKVLRNLRAHLEALRDGAGPDVEILLDLNFNAKPEGYLKILRELADFDLFWVEIDSYSPQGLAYVRNHSPHPISSCETLFGIREFKPFFDANAVDVAIVDTIWNGVWQSMKIAAFADAHDINVAPHNFYGHLCTMINANFAAAVPNLRIMETDIDRLAWEDELFTHAPEYQNGELIIPDRPGWGTDPVEEAILAHPPKVMGGLLQYKRSEGHHHHHH” is “soluble”.
The entry for “MSLLARYLNLIGRRSASPYRPQRLPAKFDNVIVAMSSGVDSSVAAALFAGEFPNTRGVYMQNWSESQSLDDPGKEPCYERDWRDVNRVAKHLNIRVDKVNFEQDYWIDVFEPMLRGYSEGSTPNPDIGCNKFVKFGKLREWLDEKYGTGNYWLVTGHYARVMQEMNGKGLFHLLRSIYRPKDQSYYLSQINSTVLSSLLLPIGHLTKPEVRDLAKYAGLPTAEKPDSQGICFVNNSQHGKFKNFLKHYLPSSPGDIITVDPQSGAKTTWGRHDGLWSYTIGQKVGISMPQADPNYQGTWFVSEKLRDTNEILIVRGRDNPALYSDTMRIENFSSLGPREDTINAFQNTGALTLQFRSLQVPVQIKSCKLNRSADNLDITIHLASKQRAITPGQSCCLYIDDRVLGSGPISHVNNNDTHAEGHHHHHH” is “not soluble”.
